These results are taken from patent publication US20130171061A1.

In assay [1] the target is Human transferrin receptor on K562 cells (human) (UniProt P02786). The experiment in a line: FACS of K562 cells with BSA-coupled fluorescent beads (negative control), 4 C, 1 h.
Assay [2] shares this target. Nature of the assay: FACS of K562 cells with BSA-coupled fluorescent beads (negative control), 37 C with sodium azide, 1 h.
Assay [3] has the same target. Nature of the assay: FACS of K562 cells with BSA-coupled fluorescent beads (negative control), 37 C, 1 h.

Sequence of Human transferrin receptor on K562 cells (human) (P02786 whole entry): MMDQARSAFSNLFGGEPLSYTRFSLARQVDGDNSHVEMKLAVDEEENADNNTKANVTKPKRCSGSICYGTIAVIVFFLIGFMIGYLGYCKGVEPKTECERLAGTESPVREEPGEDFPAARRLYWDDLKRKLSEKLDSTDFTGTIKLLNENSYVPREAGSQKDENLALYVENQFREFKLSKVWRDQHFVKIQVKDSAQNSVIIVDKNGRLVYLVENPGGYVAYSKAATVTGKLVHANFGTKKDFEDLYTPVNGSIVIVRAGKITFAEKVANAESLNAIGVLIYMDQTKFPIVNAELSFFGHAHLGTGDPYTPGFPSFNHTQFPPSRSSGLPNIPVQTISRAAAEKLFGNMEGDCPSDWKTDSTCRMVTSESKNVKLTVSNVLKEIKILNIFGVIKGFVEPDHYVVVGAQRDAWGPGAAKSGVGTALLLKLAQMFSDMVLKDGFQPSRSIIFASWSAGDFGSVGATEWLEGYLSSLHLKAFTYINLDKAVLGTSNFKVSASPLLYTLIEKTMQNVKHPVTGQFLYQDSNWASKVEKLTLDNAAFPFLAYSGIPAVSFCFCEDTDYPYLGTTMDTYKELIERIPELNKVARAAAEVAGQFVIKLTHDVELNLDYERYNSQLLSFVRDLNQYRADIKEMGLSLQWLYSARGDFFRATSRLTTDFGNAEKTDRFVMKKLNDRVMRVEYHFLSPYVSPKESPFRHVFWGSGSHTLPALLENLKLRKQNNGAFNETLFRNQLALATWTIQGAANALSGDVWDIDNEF

Turning to “BSA (negative control on fluorescent beads) (from UniProt P02769 25-607)”, the figures for the Mean fluorescence intensity (MFI) in assay [1], in assay [2] and in assay [3] were 1.45 MFI, 3.49 MFI and 9.07 MFI, respectively.
